From US20240166765A1 (ICONIC THERAPEUTICS, published 2024) come the findings set out here.

For assay [1], the target named is T1, human TF ECD-His6 (human, UniProt P13726 33-251).
T1 construct: made in Expi293 cells; the entry holds the ECD with the C-terminal TG-His6; also called TF-His; hTF
As to the kind of experiment: SPR (Biacore), antibody on chip, TF-His titrated.

The target in assay [2] is T2, cynomolgus TF ECD-His6 (cynomolgus monkey (Macaca fascicularis)).
T2 construct: made in Expi293 cells; also called TF-His; cTF
T2 chain: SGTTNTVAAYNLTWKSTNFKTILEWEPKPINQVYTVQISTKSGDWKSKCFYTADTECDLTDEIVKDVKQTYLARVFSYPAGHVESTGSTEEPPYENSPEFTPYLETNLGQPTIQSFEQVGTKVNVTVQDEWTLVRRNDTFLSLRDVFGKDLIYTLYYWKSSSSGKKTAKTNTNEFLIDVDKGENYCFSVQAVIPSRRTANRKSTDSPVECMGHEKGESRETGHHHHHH
As to the kind of experiment: SPR (Biacore), antibody on chip, TF-His titrated.

Assay [3] addresses rTF (rat TF) on HEK293 cells (rat, UniProt P42533 29-252). As to the kind of experiment: live cell staining of transfected HEK293, flow cytometry. A general note: Flow cytometry measures light scatter and fluorescence of single cells or particles in a stream.
Assay [4] has as its target T1, human TF ECD-His6. As to the kind of experiment: BLI (ForteBio Octet). (BLI is a label-free optical method that tracks binding on a fibre tip over time.)
In assay [5] the target is T2, cynomolgus TF ECD-His6. As to the kind of experiment: BLI (ForteBio Octet).
Assay [6] addresses T3, relipidated TF (UniProt P13726 33-295, limits assumed). As to the kind of experiment: cell-based or functional assay.
Assay [7] addresses T3, relipidated TF. As to the kind of experiment: cell-based or functional assay. This is another data set of the same source.
Assay [8] has as its target T4, mouse TF ECD-His6 (mouse, UniProt P20352 29-251).
T4 construct: made in Expi293 cells; also called TF-His; mTF
As to the kind of experiment: BLI (ForteBio Octet).

The target of assay [9] is T5, pig TF-His (pig (Sus scrofa)).
T5 construct: also called pig TF ECD-His; pTF
T5 chain: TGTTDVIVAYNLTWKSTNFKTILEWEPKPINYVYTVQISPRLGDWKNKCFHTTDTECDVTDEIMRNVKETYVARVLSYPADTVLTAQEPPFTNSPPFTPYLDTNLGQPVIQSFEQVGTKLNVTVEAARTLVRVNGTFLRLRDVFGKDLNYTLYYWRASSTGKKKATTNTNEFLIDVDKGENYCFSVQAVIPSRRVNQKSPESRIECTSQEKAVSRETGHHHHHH
As to the kind of experiment: SPR (Biacore), antibody captured by anti-human IgG on CM5 chip, pig TF-His in solution, 1:1 model. In general terms: Surface plasmon resonance follows binding to a sensor surface in real time, without labels.

Sequence of rTF (rat TF) on HEK293 cells (P42533 29-252): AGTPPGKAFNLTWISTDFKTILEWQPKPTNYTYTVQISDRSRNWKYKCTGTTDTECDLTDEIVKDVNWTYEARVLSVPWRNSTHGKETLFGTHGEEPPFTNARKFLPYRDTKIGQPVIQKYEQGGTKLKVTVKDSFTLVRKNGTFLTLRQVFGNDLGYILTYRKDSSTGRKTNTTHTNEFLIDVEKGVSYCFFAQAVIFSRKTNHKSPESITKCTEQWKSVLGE

B1: 29E (antibody, human IgG1, V domains shown)
VH: QVQLVESGGGVVQPGRSLRLSCAASGFTFRSYGMHWVRQAPGKGLEWVAVITYDGINKYYADSVEGRFTISRDNSKNTLYLQMNSLRAEDTAVYYCARDGVYYGVYDYWGQGTLVTVSS
VL: not shown
notes: human IgG1
B1: the Kd – broadly, the free concentration of one partner at which half of the binding sites on the other are occupied at equilibrium, for simple one-to-one binding – in assay [1] is 0.47 nM; in assay [2] it was 5.06 nM; in assay [4], 2.32 nM; in assay [5] it was 15 nM. Also, the binding result in assay [3] was “no binding (tested: 15 µg/ml (100 nM))”.

B2: 1F (antibody, human IgG1, V domains shown)
VH: EVQLLESGGGLVQPGGSLRLSCAASGFTFSDYAMGWVRQAPGKGLEWVSTISGSGGLTYYADSVKGRFTISRDNSKNTLYLQMNSLRAEDTAVYYCAKAPYGYYMDVWGKGTTVTVSS
VL: not shown
notes: human IgG1
Consider B2, for which, in assay [1], binding was characterised by a dissociation constant (Kd) of 0.31 nM. In [2], this molecule gave a Kd of 0.26 nM. Moreover, in assay [6], the “decrease of peak IIa concentration, TGA with 10 min pre-incubation, 100 nM Ab” value (“decrease … with 10 min pre-incubation, 100 nM Ab” below) turned out to be 93% and the “decrease of peak IIa concentration, TGA without pre-incubation, 100 nM Ab” value (from here on “decrease … TGA without pre-incubation, 100 nM Ab”) is 92%. Also, the binding result in [3] is given as “no binding (tested: 15 µg/ml (100 nM))”. Moreover, in assay [7], the “TGA without pre-incubation, 10 nM Ab: % ETP” value amounted to 58%; the “TGA without pre-incubation, 10 nM Ab: % Peak IIa” value was found to be 21%; the “TGA without pre-incubation, 10 nM Ab: ETP” value came out at 1400 nM·min; the “TGA without pre-incubation, 10 nM Ab: Lag Time” value was found to be 12.1 min. Moreover, in assay [7], the “TGA without pre-incubation, 10 nM Ab: Peak IIa” value was determined as 83 nM; the “TGA without pre-incubation, 10 nM Ab: ttPeak” value was 19.8 min; the “TGA without pre-incubation, 50 nM Ab: % Peak IIa” value is 8%; the “TGA without pre-incubation, 50 nM Ab: Lag Time” value was found to be 27.2 min. For the same molecule, in assay [7], the “TGA without pre-incubation, 50 nM Ab: Peak IIa” value turned out to be 32 nM; the “TGA without pre-incubation, 50 nM Ab: ttPeak” value was 36.8 min; the “TGA without pre-incubation, 100 nM Ab: % Peak IIa” value was 7%; the “TGA without pre-incubation, 100 nM Ab: Lag Time” value was 25.9 min. For the same molecule, in assay [7], the “TGA without pre-incubation, 100 nM Ab: Peak IIa” value was 29 nM and the “TGA without pre-incubation, 100 nM Ab: ttPeak” value turned out to be 37.9 min. In addition, in [4], the equilibrium dissociation constant (Kd) is 1.28 nM. This molecule also yielded a Kd in assay [5] of 1.43 nM.

B3: 43D (antibody, human IgG1, V domains shown)
VH: QVQLQQWGAGLLKPSETLSLTCAVYGGSLSGYYWSWIRQPPGKGLEWIGEIGASGSTRYNPSLKSRVTISVDTSKNQFSLKLSSVTAADTAVYYCARDTPYYYEGGYYYYMDVWGKGTTVTVSS
VL: EIVLTQSPGTLSLSPGERATLSCRASQSVSSSYLAWYQQKPGQAPRLLIYGASSRATGIPDRFSGSGSGTDFTLTISRLEPEDFAVYYCQQVGVVPYTFGGGTKVEIK
notes: human IgG1
Turning to B3, the Kd in [1] is 2.09 nM; in assay [2], 5.66 nM; in assay [4], 3.84 nM; in [5], 4.12 nM; in [8], 281 nM.

B4: 54E (antibody, human IgG1, V domains shown)
VH: QVQLVQSGAEVKKPGASVKVSCKASGYTFANYYMHWVRQAPGQGLEWMGIINPSGGITVYAQKFQGRVTMTRDTSTSTVYMELSSLRSEDTAVYYCARGGSKVAALAFDIWGQGTMVTVSS
VL: DIQMTQSPSSLSASVGDRVTITCQASQDISNSLNWYQQKPGKAPKLLIYDASNLETGVPSRFSGSRSGTDFTFTISSLQPEDIATYYCQQYNFHPLTFGGGTKVEIK
notes: human IgG1
On to B4, for which the dissociation constant Kd came out at 0.42 nM in assay [1], 1.83 nM in assay [2], 1.59 nM in [4] and 4.16 nM in assay [5]. Besides, the binding result in assay [3] was “no binding (tested: 15 µg/ml (100 nM))”.

B5: 5G9 (antibody, V domains shown)
VH: QVQLVESGGGVVQPGRSLRLSCKASGFNIKDYYMHWVRQAPGKGLEWIGLIDPENGNTIYDPKFQGRFTISADNSKNTLFLQMDSLRPEDTAVYYCARDNSYYFDYWGQGTPVTVSS
VL: DIQMTQSPSSLSASVGDRVTITCKASQDIRKYLNWYQQKPGKAPKLLIYYATSLADGVPSRFSGSGSGTDYTFTISSLQPEDIATYYCLQHGESPYTFGQGTKLEIT
As for B5, in assay [6], the “decrease … with 10 min pre-incubation, 100 nM Ab” value was found to be 92% and the “decrease … TGA without pre-incubation, 100 nM Ab” value turned out to be 92%.

B6: M1593 (antibody, V domains shown)
VH: EVQLVQSGAEVKKPGESLRISCKGSGYTFAPYWIEWVRQMPGKGLEWMGDILPGTGFTTYSPSFQGHVTISADKSISTAYLQWSSLKASDTAMYYCARSGYYGNSGFAYWGQGTLVTVSS
VL: DIVMTQTPLSLPVTPGEPASISCKSSQSLLSSGNQKNYLTWYLQKPGQSPQLLIYWASTRESGVPDRFSGSGSGTDFTLKISRVEAEDVGVYYCQNDYTYPLTFGQGTKLEIK
notes: also called 10H10; 10H10 (M1593)
Take B6: the binding result in assay [3] is recorded as “no binding (tested: 15 µg/ml (100 nM))”.

B7: TF-011 (antibody, V domains shown)
VH: EVQLLESGGGLVQPGGSLRLSCAASGFTFSNYAMSWVRQAPGKGLEWVSSISGSGDYTYYTDSVKGRFTISRDNSKNTLYLQMNSLRAEDTAVYYCARSPWGYYLDSWGQGTLVTVSS
VL: DIQMTQSPPSLSASAGDRVTITCRASQGISSRLAWYQQKPEKAPKSLIYAASSLQSGVPSRFSGSGSGTDFTLTISSLQPEDFATYYCQQYNSYPYTFGQGTKLEIK
notes: previously described anti-TF antibody
As for B7, in assay [6], the “decrease … with 10 min pre-incubation, 100 nM Ab” value amounted to 91% and the “decrease … TGA without pre-incubation, 100 nM Ab” value was found to be 91%. In [3], the binding result is given as “no binding (tested: 15 µg/ml (100 nM))”.

B8: 25A5-T (antibody, human IgG1, kappa, V domains shown)
VH: QVQLVQSGAEVKKPGASVKVSCKASGYTFDAYGISWVRQAPGQGLEWMGWIAPYSGNTNYAQKLQGRVTMTTDTSTSTAYMELRSLRSDDTAVYYCARDAGTYSPFGYGMDVWGQGTTVTVSS
VL: DIQMTQSPSTLSASVGDRVTITCRASESISNWLAWYQQKPGKAPKLLIYKAYSLEYGVPSRFSGSGSGTEFTLTISSLQPDDFATYYCQQFQKLPPFTFGGGTKVEIKR
notes: human IgG1
B8: the binding result in assay [3] is on record as “no binding (tested: 15 µg/ml (100 nM))”.

B9: 25A3 (antibody, human IgG1, kappa, V domains shown)
VH: QVQLVQSGAEVKKPGASVKVSCKASGYTFDVYGISWVRQAPGQGLEWMGWIAPYSGNTNYAQKLQGRVTMTTDTSTSTAYMELRSLRSDDTAVYYCARDAGTYSPFGYGMDVWGQGTTVTVSS
VL: DIQMTQSPSTLSASVGDRVTITCQASQSINNWLAWYQQKPGKAPKLLIYKAYNLESGVPSRFSGSGSGTEFTLTISSLQPDDFATYYCQLFQSLPPFTFGGGTKVEIKR
notes: Human IgG1; also called antibody 25A3
As to B9, the Kd in assay [9] amounted to 5.5 nM.
